Test results: US20060073133A1 (published 2006)

Tests used:
[1] = biological target: human sialoadhesin factor-3 (SAF-3), on cells (human) (UniProt Q9Y286); test: flow cytometry on monocyte-derived DCs cultured 7 days with mAb 12B1
[2] = biological target: SAF-2 (UniProt Q9NYZ4 17-363, limits assumed); test: displacement immunoassay
Sequence of SAF-2 (Q9NYZ4 17-363 limits assumed): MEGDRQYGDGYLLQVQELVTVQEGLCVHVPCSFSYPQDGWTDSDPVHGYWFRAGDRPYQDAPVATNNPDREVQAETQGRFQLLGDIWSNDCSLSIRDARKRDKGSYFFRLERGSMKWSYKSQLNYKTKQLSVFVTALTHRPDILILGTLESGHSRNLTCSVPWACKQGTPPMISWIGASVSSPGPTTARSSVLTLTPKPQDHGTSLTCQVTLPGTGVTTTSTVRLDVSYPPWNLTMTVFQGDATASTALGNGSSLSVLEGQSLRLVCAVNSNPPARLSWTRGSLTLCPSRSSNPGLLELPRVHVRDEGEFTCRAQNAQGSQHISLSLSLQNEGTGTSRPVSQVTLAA

Sequence of human sialoadhesin factor-3 (SAF-3), on cells (human) (Q9Y286 19-467 L192P/I393V limits assumed): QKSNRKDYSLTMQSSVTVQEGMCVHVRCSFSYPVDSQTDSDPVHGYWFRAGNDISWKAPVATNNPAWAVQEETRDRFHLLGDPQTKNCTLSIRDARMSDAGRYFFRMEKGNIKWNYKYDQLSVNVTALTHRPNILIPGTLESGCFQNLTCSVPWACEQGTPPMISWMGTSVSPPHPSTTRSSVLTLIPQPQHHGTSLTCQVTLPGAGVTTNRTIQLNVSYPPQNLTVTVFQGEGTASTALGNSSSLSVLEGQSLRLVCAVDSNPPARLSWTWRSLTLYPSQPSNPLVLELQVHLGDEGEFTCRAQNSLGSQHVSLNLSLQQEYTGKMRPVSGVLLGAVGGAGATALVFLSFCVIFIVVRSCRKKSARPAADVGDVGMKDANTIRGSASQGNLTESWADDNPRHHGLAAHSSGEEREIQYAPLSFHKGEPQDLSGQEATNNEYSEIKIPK

Mean Fluorescent Intensity [1] [MFI] | Molecule | binding result [2]
3.5 | Isotype Control (antibody) | 
 | monoclonal antibody 12B1 (antibody, IgG2a, V domains shown, also called mAb 12B1; SAF-3 mAb (clone 12B1)) VH: QIQLQQSGPELVKPGASVKVSCKASGYSFTDYNIYWVKQSHGKSLEWIGYIDPYNDDTGYNQKFKGKATLTVDKSSSTAFMHLNSLTSEDSAVYYCASEGIHWGQGTLVTVS VL: DIVMTQSQKFMSTSVGDRVSVTCKASQNVGTNVAWFQQKPGQSPKALIYSASYRYNGVPDRFTGSGSGTDFTLTISNVQSEDLADYFCQQYNIYPYTFGGGTKLEIK | no binding (tested: max. displacement 5%)
